For 9 molecules, binding result and EC50 results are on record in patent US20200392228A1 (PANDION OPERATIONS, published 2020).

As a reminder, the EC50 is the concentration giving half of the maximal effect. The low end stands for a more potent agent, the high end for a less potent agent.

One test deals with T1, mouse MAdCAM protein (mouse, UniProt Q61826 22-365, limits assumed).
T1 construct: also called recombinant mouse MAdCAM-1; mMAdCAM-1
T1 sequence (looked up): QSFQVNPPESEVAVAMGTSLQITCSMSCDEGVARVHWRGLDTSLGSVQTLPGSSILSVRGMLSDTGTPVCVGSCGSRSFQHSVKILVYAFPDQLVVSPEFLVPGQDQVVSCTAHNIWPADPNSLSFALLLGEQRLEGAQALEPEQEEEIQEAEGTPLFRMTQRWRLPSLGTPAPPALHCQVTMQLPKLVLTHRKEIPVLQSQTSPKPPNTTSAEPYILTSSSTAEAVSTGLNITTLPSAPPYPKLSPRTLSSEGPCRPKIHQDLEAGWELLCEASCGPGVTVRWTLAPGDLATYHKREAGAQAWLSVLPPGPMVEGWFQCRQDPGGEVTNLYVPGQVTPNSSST
Kind of test: Octet. (In general: In BLI a coated tip is dipped into the sample, and binding shifts an interference pattern.)

Another test has as its target T2, human MAdCAM protein (human, UniProt Q13477 19-317).
T2 construct: used for Octet, SPR, ELISA and plate capture; construct not described; also called recombinant human MAdCAM; soluble monomeric human MAdCAM
T2 sequence (looked up): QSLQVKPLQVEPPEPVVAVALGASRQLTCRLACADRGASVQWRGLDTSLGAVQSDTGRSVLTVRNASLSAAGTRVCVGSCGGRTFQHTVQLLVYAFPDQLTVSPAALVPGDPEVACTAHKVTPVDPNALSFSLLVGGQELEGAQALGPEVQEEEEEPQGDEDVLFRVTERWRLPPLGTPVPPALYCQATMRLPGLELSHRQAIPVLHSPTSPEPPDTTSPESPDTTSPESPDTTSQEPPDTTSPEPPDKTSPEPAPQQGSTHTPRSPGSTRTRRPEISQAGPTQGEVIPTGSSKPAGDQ
The test can be described thus: Octet.

Test [1] concerns the target T3, human MAdCAM expressed on cells (human, UniProt Q13477 19-382).
T3 construct: whole, on cells; also called MADCAM1
T3 sequence (looked up): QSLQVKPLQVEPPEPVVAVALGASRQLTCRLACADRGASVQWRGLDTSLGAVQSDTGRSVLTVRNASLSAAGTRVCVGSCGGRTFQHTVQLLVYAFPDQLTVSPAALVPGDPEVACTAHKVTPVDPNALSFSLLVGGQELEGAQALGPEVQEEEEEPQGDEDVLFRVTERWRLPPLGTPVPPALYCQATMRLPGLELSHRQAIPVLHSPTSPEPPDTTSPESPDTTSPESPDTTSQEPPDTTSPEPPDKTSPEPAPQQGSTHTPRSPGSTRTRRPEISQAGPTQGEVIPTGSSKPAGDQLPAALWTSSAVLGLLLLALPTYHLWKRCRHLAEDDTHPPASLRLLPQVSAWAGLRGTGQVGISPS
Kind of test: cell binding.

Test [2] addresses T4, mouse MAdCAM expressed on cells (mouse, UniProt Q61826 22-405).
T4 construct: whole, on cells
T4 sequence (looked up): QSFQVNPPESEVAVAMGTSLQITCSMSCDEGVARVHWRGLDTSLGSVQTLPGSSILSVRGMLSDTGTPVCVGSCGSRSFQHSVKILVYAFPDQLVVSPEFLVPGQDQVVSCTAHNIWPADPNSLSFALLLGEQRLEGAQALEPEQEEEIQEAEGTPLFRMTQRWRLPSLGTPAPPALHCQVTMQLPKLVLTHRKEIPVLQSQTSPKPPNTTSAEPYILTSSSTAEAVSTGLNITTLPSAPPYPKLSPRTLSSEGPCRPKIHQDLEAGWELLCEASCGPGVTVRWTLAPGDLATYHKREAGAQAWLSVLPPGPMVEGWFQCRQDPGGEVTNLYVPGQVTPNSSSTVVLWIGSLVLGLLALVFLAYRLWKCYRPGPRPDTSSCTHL
The test can be described thus: cell binding.

A further test addresses T5, CD25 (Homo sapiens (Human), UniProt P01589 22-240).
T5 construct: also called IL-2R alpha chain
T5 sequence: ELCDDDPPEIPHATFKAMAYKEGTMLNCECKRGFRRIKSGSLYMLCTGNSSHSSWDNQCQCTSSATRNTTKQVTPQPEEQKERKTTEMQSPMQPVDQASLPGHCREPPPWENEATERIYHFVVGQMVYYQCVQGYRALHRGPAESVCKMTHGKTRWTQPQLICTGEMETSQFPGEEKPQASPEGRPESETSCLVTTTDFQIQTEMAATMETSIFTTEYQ
Kind of test: ELISA, plate-bound CD25. On the procedure: An immunosorbent plate was coated with CD25 at a concentration of 0.5 μg/mL in PBS pH 7.4, 75 ul/well, and incubated overnight at 4° C. Wells were washed with PBS pH 7.4 containing 0.05% Tween-20 (wash buffer) three times, and then blocked with 200 ul/well 1% BSA in PBS pH 7.4 (block buffer) for two hours at room temperature. After three washes with wash buffer IL-2M molecules of Example 12 were diluted to eleven—two fold serial dilution in PBS containing 1% BSA and 0.05% Tween-20 (assay buffer) with 2 nM being the highest concentration. The diluted material was added to the CD25 coated plate at 75 ul/well for 1 hour at room temperature. After three washes with wash buffer, a goat biotinylated anti-IL-2 polyclonal antibody, diluted to 0.05 μg/mL in assay buffer, was added to the plate at 75 ul/well for 1 hr at room temperature. After three washes with wash buffer high sensitivity streptavidin HRP diluted in assay buffer at 1:5000 was added to the plate at 75 ul/well for 15 minutes at room temperature. After three washes with wash buffer and 1 wash with wash buffer (with no tween-20), the assay was developed with TMB, and stopped with 1N HCL. OD 450 nm was measured. The experiment included appropriate controls for non-specific binding of IL-2M molecules to the plate/block in the absence of CD25 and a negative control molecule that is unable to bind CD25.

B1: MAdCAM antibody Clone ID 23 of Table 6 (scFv) (scFv)
scFv: EVQLLESGGGLVQPGGSLRLSCAASGFTFSSYAMHWVRQAPGKGLEWVSGISGSGGSAYYADSVKGRFTISRDNSKNTLYLQMNSLRAEDTAVYYCATSQAPVDYYYYGMDVWGQGTTVTVSSGGGGSGGGGSGGGGSGGGGSDIQMTQSPSSLSASVGDRVTITCRASQSISSWLAWYQQKPGKAPKLLIYAASNLQRGVPSRFSGSGSGTDFTLTISSLQPEDFATYYCQQSYSIPITFGQGTKVEIK
Regarding B1, the binding result was “no binding” in the test with mouse MAdCAM protein, “binds” with human MAdCAM protein, “binds” in test [1] and “no binding” in test [2].

B2: MAdCAM antibody Clone ID 63 of Table 6 (scFv) (scFv)
scFv: EVQLLESGGGLVKPGGSLRLSCAASGFTFDDYAMHWVRQAPGKGLEWVASITSSSAFIDYAASVKGRFTISRDDSKNTLYLQMNSLKTEDTAVYYCARERVDWNSYFDLWGRGTLVTVSSGGGGSGGGGSGGGGSGGGGSEIVMTQSPATLSVSPGERATLSCRASQGISNSYLAWYQQKPGQAPRLLIYGASTRATGIPARFSGSGSGTEFTLTISSLQSEDFAVYYCQQYYTYPPTFGPGTKVDIK
Turning to B2, the binding result (with mouse MAdCAM protein; with human MAdCAM protein; in test [1]; in test [2]) was “binds” in each case.

B3: MAdCAM antibody Clone ID 9 of Table 6 (scFv) (scFv)
scFv: EVQLLESGGGLVQPGGSLRLSCAASGFTFSDYYMNWVRQAPGKGLEWVSVIGESGGSTYYADSVKGRFTISRDNSKNTLYLQMNSLRAEDTAVYYCAADPVSRWPKHGGGDYWGQGTLVTVSSGGGGSGGGGSGGGGSGGGGSDIQMTQSPSSLSASVGDRVTITCRASQGISSSLAWYQQKPGKAPKLLIYAASTLQSGVPSRFSGSGSGTDFTLTISSLQPEDFATYYCQQSYSTPWTFGQGTKVEIK
As to B3, the binding result (with mouse MAdCAM protein; with human MAdCAM protein; in test [1]; in test [2]) was “binds” each time.

B4: MAdCAM antibody Clone ID 7 of Table 6 (scFv) (scFv)
scFv: QVQLVQSGAEVKKPGASVKVSCKASGYTFTGYHIHWVRQAPGQGLEWMGIINPSGGSTIYAQKFQGRVTMTRDTSTSTVYMELSSLRSEDTAVYYCAKDWSSWYLGPFDYWGQGTLVTVSSGGGGSGGGGSGGGGSGGGGSDIQMTQSPSSLSASVGDRVTITCRASQNISSSLNWYQQKPGKAPKLLIYAASSLQSGVPSRFSGSGSGTDFTLTISSLQPEDFATYYCQQSYTTPYTFGQGTKVEIK
For the molecule B4, the binding result (with mouse MAdCAM protein; in the test with human MAdCAM protein; in test [1]; in test [2]) was “binds” each time.

B5: MAdCAM antibody Clone ID 20 of Table 6 (scFv) (scFv)
scFv: EVQLLESGGGLVQPGGSLRLSCAASGFTFDDYAMHWVRQAPGKGLEWVSYIDTSSSHLYYADSVKGRFTISRDNSKNTLYLQMNSLRAEDTAVYYCARDEAAAGYYGMDVWGQGTTVTVSSGGGGSGGGGSGGGGSGGGGSDIQMTQSPSSLSASVGDRVTITCQAGQDISNYLNWYQQKPGKAPKLLIYDASNLETGVPSRFSGSGSGTDFTLTISSLQPEDFATYYCQQTYSTPITFGQGTKLEIK
On to B5, for which the binding result in the test with mouse MAdCAM protein was “no binding”; with human MAdCAM protein, “binds”; in test [1], “binds”; in test [2], “no binding”.

B6: MAdCAM antibody Clone ID 6 of Table 6 (scFv) (scFv)
scFv: EVQLLESGGGLVQPGGSLRLSCAASGFTFNNYAFHWVRQAPGKGLEWVSRINSYGTSTTYADSVKGRFTISRDNSKNTLYLQMNSLRAEDTAVYYCAREGPVAGYWYFDLWGQGTLVTVSSGGGGSGGGGSGGGGSGGGGSDIQMTQSPSSLSASVGDRVTITCRASQIIGTNLAWYQQKPGKAPKLLIYGASSLQSGVPSRFSGSGSGTDFTLTISSLQPEDFATYYCQQSYRLPFTFGQGTKVEIK
notes: also called Antibody Clone 6
In the case of B6, the binding result is on record as “no binding” with mouse MAdCAM protein, “binds” in the test with human MAdCAM protein, “binds” in test [1] and “no binding” in test [2].

B7: MAdCAM antibody Clone ID 5 of Table 6 (scFv) (scFv)
scFv: EVQLLESGGGLVQPGGSLRLSCAASGFTFSSYWMHWVRQAPGKGLEWVSSISPGGSNIDYADSVKGRFTISRDNSKNTLYLQMNSLRAEDTAVYYCAREVQLSHYDYWGQGTLVTVSSGGGGSGGGGSGGGGSGGGGSDIQMTQSPSSLSASVGDRVTITCRASQGISNSLAWYQQKPGKAPKLLIYGASSLQSGVPSRFSGSGSGTDFTLTISSLQPEDFATYYCQQANSFPFTFGQGTKVEIK
On to B7, for which the binding result (in the test with mouse MAdCAM protein; with human MAdCAM protein; in test [1]; in test [2]) was “binds” in each case.

B8: human IL-2M fused N-terminally to human IgG1 Fc domain (SEQ ID NO: 57) (Fc fusion)
chain: APTSSSTKKTQLQLEHLLLDLQMILNGINNYKNPKLTRMLTFKFYMPKKATELKHLQCLEEELKPLEEALNLAPSKNFHLRPRDLISDINVIVLELKGSETTFMCEYADETATIVEFLNRWITFSQSIISTLTGGGGSGGGGSGGGGSGGGGSDKTHTCPPCPAPEAAGAPSVFLFPPKPKDTLMISRTPEVTCVVVDVSHEDPEVKFNWYVDGVEVHNAKTKPREEQYNSTYRVVSVLTVLHQDWLNGKEYKCKVSNKALPAPIEKTISKAKGQPREPQVYTLPPSREEMTKNQVSLTCLVKGFYPSDIAVEWESNGQPENNYKTTPPVLDSDGSFFLYSKLTVDKSRWQQGNVFSCSVMHEALHNHYTQKSLSLSPG
notes: also called IL-2 N88D V69A, Q74P-G4Sx4-Fc
On to B8, for which the EC50 with CD25 is less than 1 nM.

B9: MAdCAM antibody Clone ID 19 of Table 6 (scFv) (scFv)
scFv: EVQLLESGGGLVQPGGSLRLSCAASGFTFDDYAMHWVRQAPGKGLEWVSGISWNSGSIGYADSVKGRFTISRDNSKNTLYLQMNSLRAEDTAVYYCAKDIVAAGHYYYGMDVWGQGTTVTVSSGGGGSGGGGSGGGGSGGGGSDIQMTQSPSSLSASVGDRVTITCQASQDISNYLNWYQQKPGKAPKLLIYDASNLETGVPSRFSGSGSGTDFTLTISSLQPEDFATYYCQQSYSTPLTFGGGTKVEIK
On to B9, for which the binding result is on record as “no binding” with mouse MAdCAM protein, “binds” with human MAdCAM protein, “binds” in test [1] and “no binding” in test [2].
